Laboratory results from US20240076389A1 (NATIONAL RESEARCH COUNCIL OF CANADA, published 2024).
One block for each binder: values may come before it.

Tests used:
[1] = molecular target: T1, recombinant human AXL extracellular domain, C-terminally His8-tagged (rhAXL-ECD) (human, UniProt P30530 26-451); assay: ELISA on coated AXL ECD (100 ng/well), VHH-Fc, HRP-protein A
T1 construct: Made in CHO cells; also called (rh)AXL-ECD His8; human AXL ECD
T1 sequence: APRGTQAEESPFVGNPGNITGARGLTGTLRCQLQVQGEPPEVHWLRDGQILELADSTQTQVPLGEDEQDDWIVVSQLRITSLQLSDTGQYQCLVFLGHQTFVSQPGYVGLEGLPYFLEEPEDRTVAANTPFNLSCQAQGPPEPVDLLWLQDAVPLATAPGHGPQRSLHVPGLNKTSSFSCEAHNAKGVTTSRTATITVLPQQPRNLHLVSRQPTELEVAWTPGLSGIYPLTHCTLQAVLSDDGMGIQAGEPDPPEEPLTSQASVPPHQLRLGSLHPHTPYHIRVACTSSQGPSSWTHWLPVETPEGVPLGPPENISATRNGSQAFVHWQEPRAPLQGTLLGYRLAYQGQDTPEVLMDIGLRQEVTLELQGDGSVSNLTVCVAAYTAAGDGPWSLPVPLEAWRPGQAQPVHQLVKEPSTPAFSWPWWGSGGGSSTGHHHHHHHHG
Experimental: (§1) ELISA. ELISAs against human, cyno and mouse AXL ECDs were conducted by immobilizing 100 ng of each protein in wells of Nunc MaxiSorp microplates overnight. Human AXL (aa 1-451) and cyno AXL (aa 1-449) were produced recombinantly as described in Example 10. Mouse AXL was purchased from Sino (cat. 51026-M08H). The next day, plates were blocked with 5% (w/v) dried milk in PBS. Murine mAbs (either hybridoma- or recombinantly-produced) or VHH-Fcs were diluted in PBS containing 1% BSA and 0.1% Tween-20 and added to wells for 2 hours at room temperature. Wells were washed 5× with PBS containing 0.1% Tween-20, then HRP-labeled protein A (diluted 1:1000 in PBS containing 1% BSA and 0.1% Tween™-20) was added to wells for 1 hour at room temperature. Wells were washed again 5× with PBS/0.1% Tween-20 and developed using TMB substrate. Absorbance was measured at 450 nm. As a positive control for mouse AXL binding, a commercial anti-mouse AXL mAb (clone 175128, R&D Systems MAB8541, rat IgG2A) was used and detected with donkey […] secondary antibody.

[2] = molecular target: T2, human AXL expressed on the cell surface of tumor cell lines (human, UniProt P30530 26-894); assay: FACS on MDA-MB-231 luciferase cells, apparent Kd, human Fc format
T2 construct: whole, on cells; also called cell surface-expressed AXL; cell-based AXL
T2 sequence (looked up): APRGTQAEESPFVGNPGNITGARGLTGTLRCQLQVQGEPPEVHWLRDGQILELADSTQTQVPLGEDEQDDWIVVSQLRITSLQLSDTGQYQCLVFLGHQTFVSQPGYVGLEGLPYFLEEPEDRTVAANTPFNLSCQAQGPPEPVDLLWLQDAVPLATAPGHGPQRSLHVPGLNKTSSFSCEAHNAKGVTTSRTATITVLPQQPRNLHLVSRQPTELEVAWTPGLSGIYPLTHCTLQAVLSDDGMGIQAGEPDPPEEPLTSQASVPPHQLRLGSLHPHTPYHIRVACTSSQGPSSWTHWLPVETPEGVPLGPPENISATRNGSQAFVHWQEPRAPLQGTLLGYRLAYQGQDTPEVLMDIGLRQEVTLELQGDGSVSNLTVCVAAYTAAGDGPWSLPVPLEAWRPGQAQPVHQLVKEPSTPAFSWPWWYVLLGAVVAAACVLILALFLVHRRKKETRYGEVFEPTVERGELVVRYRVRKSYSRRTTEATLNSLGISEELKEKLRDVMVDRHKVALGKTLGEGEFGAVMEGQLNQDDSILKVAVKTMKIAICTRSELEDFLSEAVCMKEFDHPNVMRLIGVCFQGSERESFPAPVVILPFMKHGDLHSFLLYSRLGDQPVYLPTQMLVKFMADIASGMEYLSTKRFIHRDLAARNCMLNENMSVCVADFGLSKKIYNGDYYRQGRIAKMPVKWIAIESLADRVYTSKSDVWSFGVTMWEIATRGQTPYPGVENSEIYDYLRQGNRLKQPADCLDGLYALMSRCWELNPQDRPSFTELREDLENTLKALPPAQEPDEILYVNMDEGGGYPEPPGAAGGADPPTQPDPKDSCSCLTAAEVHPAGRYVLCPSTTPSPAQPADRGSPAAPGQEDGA
Experimental: (§2) FACS binding assay. Adherent cells were dissociated with non-enzymatic Sigma Cell Dissociation Solution (Cat. No. C5789). Cells suspensions were added to polypropylene, V-bottom 96-well plates and incubated for 2 hours on ice with primary antibodies at concentrations ranging from 100 nM to 0.001 nM or at a single dose of 100 nM (for the non-specific control). After incubation and washes, cells were incubated with fluorescently labeled secondary antibody (Alexa Fluor® 488 anti-human IgG from Jackson Cat. No 709-546-098) for 1 hour on ice, then washed. Cell viability was determined using Fixable viability dye 450 (20 min on ice). Stained cells were fixed in 1% formaldehyde at 4° C. and stored at 4° C. until acquisition which was performed the next day.
(§3) Binding of recombinant chimeric Abs to three cell lines was assessed by FACS as described above. The apparent Bmax and Kd determination is shown below in Table 14.

[3] = molecular target: T2, human AXL expressed on the cell surface …; assay: FACS on SKOV3 cells, apparent Kd, human Fc format
Experimental: as §2, §3

[4] = molecular target: T3, mouse AXL extracellular domain (Sino cat. 51026-M08H) (mouse, UniProt Q00993 19-445); assay: ELISA on coated mouse AXL ECD (100 ng/well), VHH-Fc
T3 construct: extracellular domain; Bought protein; also called mouse AXL ECD
T3 sequence (looked up): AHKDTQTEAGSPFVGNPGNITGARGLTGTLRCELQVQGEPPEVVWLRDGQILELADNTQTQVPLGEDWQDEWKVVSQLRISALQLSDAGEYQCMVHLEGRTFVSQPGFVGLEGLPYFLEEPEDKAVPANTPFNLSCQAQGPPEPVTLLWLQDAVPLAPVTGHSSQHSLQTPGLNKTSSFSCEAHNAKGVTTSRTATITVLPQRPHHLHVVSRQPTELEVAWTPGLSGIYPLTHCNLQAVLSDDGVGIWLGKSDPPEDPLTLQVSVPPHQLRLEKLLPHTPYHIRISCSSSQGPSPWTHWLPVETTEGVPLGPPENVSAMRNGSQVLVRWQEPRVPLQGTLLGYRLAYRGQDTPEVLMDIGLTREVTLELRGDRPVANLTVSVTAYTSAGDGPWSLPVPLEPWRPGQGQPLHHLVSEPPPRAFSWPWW
Experimental: as §1

[5] = molecular target: T4, recombinant cynomolgus AXL extracellular domain (cynomolgus); assay: SPR, VHH-Fc captured, AXL ECD flowed, single-concentration kinetics (estimate)
T4 construct: range 1-449; also called Cyno AXL; cyno AXL ECD
Experimental: (§4) For VH Hs and VHH-Fcs, binding to human and cynomolgus AXL ECD was assessed using either a Biacore T200 instrument or a Biacore 3000 instrument. Either human AXL ECD or anti-human Fc antibody was immobilized on a research-grade CM5 series S sensor chip (T200, rhAXL ECD) or a C1 sensor chip (3000, anti-human Fc) using amine coupling in acetate buffer. VHH-Fcs were captured on anti-human Fc surfaces. Either monomeric VHHs (for rhAXL ECD surfaces) or human and cyno AXL ECD (for VHH-Fc surfaces) were flowed over the surfaces at different concentration ranges. Running buffers were HBS-EP (3000) and HBS-EP+(T200). Flow rates were 10-40 ul/min. All binding studies were performed at 25° C. Surfaces were regenerated using 10 mM glycine, pH 1.5.

[6] = molecular target: T1, recombinant human AXL extracellular …; assay: as above
Experimental: as §4

[7] = molecular target: T2, human AXL expressed on the cell surface …; assay: FACS on NCI-H292 cells, apparent Kd, human Fc format
Experimental: as §2, §3

[8] = molecular target: T1, recombinant human AXL extracellular …; assay: ELISA on coated AXL ECD (100 ng/well), HRP-protein A
Experimental: as §1

[9] = molecular target: T1, recombinant human AXL extracellular …; assay: SPR Biacore T200, mAb captured on anti-Fc, AXL ECD flowed, multi-cycle kinetics
Experimental: (§5) Surface plasmon resonance. For murine mAbs, binding to human and cynomolgus AXL ECD was assessed using a Biacore T200 instrument. Briefly, either anti-mouse or anti-human Fc antibody was immobilized on a research-grade CM5 series S sensor chip using amine coupling in acetate buffer. Murine or recombinant chimeric murine-human mAbs (mouse VH/VL; human constant regions) were captured, then recombinant human or cyno AXL ECD was flowed over the surface at different concentration ranges (0.1-500 nM) depending on the antibody. The running buffer was PBS/Tween-20 and the flow rate 100 uL/min. All binding studies were performed at 25° C. Surfaces were regenerated using 10 mM glycine, pH 1.5.

[10] = molecular target: T3, mouse AXL extracellular domain (Sino …); assay: ELISA on coated mouse AXL ECD (100 ng/well)
Experimental: as §1

[11] = molecular target: T4, recombinant cynomolgus AXL …; assay: SPR Biacore T200, mAb captured on anti-Fc, AXL ECD flowed, multi-cycle kinetics
Experimental: as §5

[12] = molecular target: T2, human AXL expressed on the cell surface …; assay: cell-based or functional assay
[13] = molecular target: T2, human AXL expressed on the cell surface …; assay: cell-based or functional assay; remark: listed apart in the source

EC50 [1]: 1 nM
Kd [2]: 1.47 nM
Kd [3]: 2.03 nM
binding result [4]: no binding
Kd [5]: 35 nM
koff [5]: 0.0046 s⁻¹
kon [5]: 130000 M⁻¹ s⁻¹
Kd [6]: 34 nM
koff [6]: 0.0041 s⁻¹
kon [6]: 120000 M⁻¹ s⁻¹
Kd [7]: 1.47 nM
B1: NRC-sdAb005-Fc (VHH-human IgG1 Fc fusion) (Fc fusion)
chain: QVKLEESGGGLAQAGGSLRLSCAASGSISSINTIGWFRQAPGKQRELVAASDSGANRNYADSVKGRFTISRDNAKNTVYLQMNNLKPEDTAIYYCRAWGTGTISTMYWGQGTQVTVSS
notes: VHH fused N-terminally to human IgG1 Fc; also called NRC-sdAb005-hIgG1; not shown: human IgG1 Fc

EC50 [8]: 15 nM
Kd [9]: 1 nM
koff [9]: 0.0012 s⁻¹
kon [9]: 750000 M⁻¹ s⁻¹
binding result [10]: no binding
B2: mIgG2 F149-4G4 (antibody, V domains shown)
VH: QIQLVQSGPELKKPGETVKISCKTSGYTFTYYGINWVKQAPGKGLEWMGWINTYLGEPTYADDFKGRFAFSLETSASTAYLQINNLRDEDMATYFCTRGTMSYSFDYWGQGTALTVSS
VL: QNVLTQSPAIMSASPGEEVTMTCRASSSVSSSYLHWYQQKSGASPKLWIYSTSKLASGVPARFSGSGSGTSYSLTISSVEAEDAATYYCHQYSGDPLTFGSGTKLEVK
notes: Printed as mIgG2 (mouse IgG2)

EC50 [1]: 1 nM
Kd [2]: 0.832 nM
Kd [3]: 13.4 nM
binding result [4]: no binding
Kd [5]: 26 nM
koff [5]: 0.0026 s⁻¹
kon [5]: 100000 M⁻¹ s⁻¹
Kd [6]: 24 nM
koff [6]: 0.0021 s⁻¹
kon [6]: 89000 M⁻¹ s⁻¹
Kd [7]: 2.12 nM
B3: NRC-sdAb006-Fc (VHH-human IgG1 Fc fusion) (Fc fusion)
chain: QVKLEESGGGLVQAGASLRLSCVASESIFGFNTMGWYRQAPGNERELVASISNSKRTMYADSVKGRFTISRDNAKNTVNLQMNNLKPEDTAVYYCRAWGIITSATVYWGQGTQVTVSS
notes: VHH fused N-terminally to human IgG1 Fc; also called NRC-sdAb006-hIgG1; not shown: human IgG1 Fc

EC50 [8]: 14 nM
Kd [11]: 25 nM
koff [11]: 0.0073 s⁻¹
kon [11]: 290000 M⁻¹ s⁻¹
Kd [9]: 3 nM
koff [9]: 0.0018 s⁻¹
kon [9]: 560000 M⁻¹ s⁻¹
binding result [10]: no binding
B4: mIgG2 F155-3C7 (antibody, V domains shown)
VH: QVQLQQPGTELVKPGASVKLSCKASGYIFTNFWINWVKQRPGQGLEWIGNIFPGSNSSNYNEKFKNKATLTVDKSSSTAYMHLSSLTSEDSAVYYCVRDYYGGSPDYWGQGTTLTVSS
VL: DIVMSQSPSSLAVSAGEKVTMSCKSSQSLLNSKTRKNYLAWYQQKPGQSPKLLIYWASTRESGVPARFTGSGSGTDFTLTISSVQAEDLAIYYCKHSYNLWTFGGGTKLEIR
notes: Printed as mIgG2 (mouse IgG2)

IC50 (read off the curve), growth inhibition of H292 cells, with added Gas6 (squares) [12]: ~0.04 nM
IC50 (read off the curve), growth inhibition of H292 cells, without added Gas6 (circles) [12]: ~0.04 nM
IC50 of growth inhibition (CellTiterGlo, 5 days) of NCI-H292 cells, -Gas6 [13]: 0.084 nM
IC50 of growth inhibition of NCI-H292 cells, +Gas6 (2 µg/mL) [13]: 0.074 nM
B5: hFc-F111-5E9-DM1 (antibody, human IgG1, kappa, V domains shown)
VH: QIQLVQSGPELKKPGETVKISCKASGYTFTKYGMNWVKQAPGKGLKWMGWINTYTGEPTYADDFKGRFAFSLETSASTAYLQINNLTTEDMVTYFCAKGGYYSNPIYPMDYWGQGTSVTVSS
VL: DIQMTQTTSSLSASLGDRVTISCRASQDINNYLNWYQQKPDGTVKLLIYYISRLHSGVPSRFSGSGSGTDYSLTISNLELEDVATYFCQQGNTLPFTFGSGTKLEIKR
modifications: DM1 through SMCC linker on lysine residues; sites not given
